Data on 6 molecules can be found in patent US20210388087A1 (Chugai, published 2021).

B1: CE115HA000 A52aV one-arm antibody (antibody, human IgG1, kappa, L234A L235A, N297A, name in Kabat numbering)
heavy: QVQLVESGGGVVQPGRSLRLSCAASGFTFSNAWMHWVRQAPGKGLEWVAQIKVKSNNYATYYAESVKGRFTISRDDSKNSLYLQMNSLKTEDTAVYYCRYVHYGAYYGVDAWGQGTTVTVSSASTKGPSVFPLAPSSKSTSGGTAALGCLVKDYFPEPVTVSWNSGALTSGVHTFPAVLQSSGLYSLSSVVTVPSSSLGTQTYICNVNHKPSNTKVDKKVEPKSCDKTHTCPPCPAPEAAGGPSVFLFPPKPKDTLMISRTPEVTCVVVDVSHEDPEVKFNWYVDGVEVHNAKTKPREEQYASTYRVVSVLTVLHQDWLNGKEYKCKVSNKALPAPIEKTISKAKGQPREPQVYTLPPSRCELTKNQVSLSCAVKGFYPSDIAVEWESNGQPENNYKTTPPVLDSDGSFFLVSKLTVDKSRWQQGNVFSCSVMHEALHNHYTQKSLSLSPDYKDDDDK
chain: EPKSSDKTHTCPPCPAPELLGGPSVFLFPPKPKDTLMISRTPEVTCVVVDVSHEDPEVKFNWYVDGVEVHNAKTKPREEQYNSTYRVVSVLTVLHQDWLNGKEYKCKVSNKALPAPIEKTISKAKGQPREPQVCTLPPSRDELTKNQVSLWCLVKGFYPSDIAVEWESNGQPENNYKTTPPVLDSDGSFFLYSKLTVDKSRWQQGNVFSCSVMHEALHNRYTQKSLSLSP
light: DIVMTQSPLSLPVTPGEPASISCRSSQSLVHSNRNTYLHWYQQKPGQAPRLLIYKVSNRFSGVPDRFSGSGSGTDFTLKISRVEAEDVGVYYCGQGTQVPYTFGQGTKLEIKRTVAAPSVFIFPPSDEQLKSGTASVVCLLNNFYPREAKVQWKVDNALQSGNSQESVTEQDSKDSTYSLSSTLTLSKADYEKHKVYACEVTHQGLSSPVTKSFNRGEC
B2: CE115HA000 A56K one-arm antibody (antibody, human IgG1, kappa, L234A L235A, N297A, name in Kabat numbering)
heavy: QVQLVESGGGVVQPGRSLRLSCAASGFTFSNAWMHWVRQAPGKGLEWVAQIKAKSNNYKTYYAESVKGRFTISRDDSKNSLYLQMNSLKTEDTAVYYCRYVHYGAYYGVDAWGQGTTVTVSSASTKGPSVFPLAPSSKSTSGGTAALGCLVKDYFPEPVTVSWNSGALTSGVHTFPAVLQSSGLYSLSSVVTVPSSSLGTQTYICNVNHKPSNTKVDKKVEPKSCDKTHTCPPCPAPEAAGGPSVFLFPPKPKDTLMISRTPEVTCVVVDVSHEDPEVKFNWYVDGVEVHNAKTKPREEQYASTYRVVSVLTVLHQDWLNGKEYKCKVSNKALPAPIEKTISKAKGQPREPQVYTLPPSRCELTKNQVSLSCAVKGFYPSDIAVEWESNGQPENNYKTTPPVLDSDGSFFLVSKLTVDKSRWQQGNVFSCSVMHEALHNHYTQKSLSLSPDYKDDDDK
chain: EPKSSDKTHTCPPCPAPELLGGPSVFLFPPKPKDTLMISRTPEVTCVVVDVSHEDPEVKFNWYVDGVEVHNAKTKPREEQYNSTYRVVSVLTVLHQDWLNGKEYKCKVSNKALPAPIEKTISKAKGQPREPQVCTLPPSRDELTKNQVSLWCLVKGFYPSDIAVEWESNGQPENNYKTTPPVLDSDGSFFLYSKLTVDKSRWQQGNVFSCSVMHEALHNRYTQKSLSLSP
light: DIVMTQSPLSLPVTPGEPASISCRSSQSLVHSNRNTYLHWYQQKPGQAPRLLIYKVSNRFSGVPDRFSGSGSGTDFTLKISRVEAEDVGVYYCGQGTQVPYTFGQGTKLEIKRTVAAPSVFIFPPSDEQLKSGTASVVCLLNNFYPREAKVQWKVDNALQSGNSQESVTEQDSKDSTYSLSSTLTLSKADYEKHKVYACEVTHQGLSSPVTKSFNRGEC
B3: CE115HA000 A52aY one-arm antibody (antibody, human IgG1, kappa, L234A L235A, N297A, name in Kabat numbering)
heavy: QVQLVESGGGVVQPGRSLRLSCAASGFTFSNAWMHWVRQAPGKGLEWVAQIKYKSNNYATYYAESVKGRFTISRDDSKNSLYLQMNSLKTEDTAVYYCRYVHYGAYYGVDAWGQGTTVTVSSASTKGPSVFPLAPSSKSTSGGTAALGCLVKDYFPEPVTVSWNSGALTSGVHTFPAVLQSSGLYSLSSVVTVPSSSLGTQTYICNVNHKPSNTKVDKKVEPKSCDKTHTCPPCPAPEAAGGPSVFLFPPKPKDTLMISRTPEVTCVVVDVSHEDPEVKFNWYVDGVEVHNAKTKPREEQYASTYRVVSVLTVLHQDWLNGKEYKCKVSNKALPAPIEKTISKAKGQPREPQVYTLPPSRCELTKNQVSLSCAVKGFYPSDIAVEWESNGQPENNYKTTPPVLDSDGSFFLVSKLTVDKSRWQQGNVFSCSVMHEALHNHYTQKSLSLSPDYKDDDDK
chain: EPKSSDKTHTCPPCPAPELLGGPSVFLFPPKPKDTLMISRTPEVTCVVVDVSHEDPEVKFNWYVDGVEVHNAKTKPREEQYNSTYRVVSVLTVLHQDWLNGKEYKCKVSNKALPAPIEKTISKAKGQPREPQVCTLPPSRDELTKNQVSLWCLVKGFYPSDIAVEWESNGQPENNYKTTPPVLDSDGSFFLYSKLTVDKSRWQQGNVFSCSVMHEALHNRYTQKSLSLSP
light: DIVMTQSPLSLPVTPGEPASISCRSSQSLVHSNRNTYLHWYQQKPGQAPRLLIYKVSNRFSGVPDRFSGSGSGTDFTLKISRVEAEDVGVYYCGQGTQVPYTFGQGTKLEIKRTVAAPSVFIFPPSDEQLKSGTASVVCLLNNFYPREAKVQWKVDNALQSGNSQESVTEQDSKDSTYSLSSTLTLSKADYEKHKVYACEVTHQGLSSPVTKSFNRGEC
B4: CE115HA000 A56L one-arm antibody (antibody, human IgG1, kappa, L234A L235A, N297A, name in Kabat numbering)
heavy: QVQLVESGGGVVQPGRSLRLSCAASGFTFSNAWMHWVRQAPGKGLEWVAQIKAKSNNYLTYYAESVKGRFTISRDDSKNSLYLQMNSLKTEDTAVYYCRYVHYGAYYGVDAWGQGTTVTVSSASTKGPSVFPLAPSSKSTSGGTAALGCLVKDYFPEPVTVSWNSGALTSGVHTFPAVLQSSGLYSLSSVVTVPSSSLGTQTYICNVNHKPSNTKVDKKVEPKSCDKTHTCPPCPAPEAAGGPSVFLFPPKPKDTLMISRTPEVTCVVVDVSHEDPEVKFNWYVDGVEVHNAKTKPREEQYASTYRVVSVLTVLHQDWLNGKEYKCKVSNKALPAPIEKTISKAKGQPREPQVYTLPPSRCELTKNQVSLSCAVKGFYPSDIAVEWESNGQPENNYKTTPPVLDSDGSFFLVSKLTVDKSRWQQGNVFSCSVMHEALHNHYTQKSLSLSPDYKDDDDK
chain: EPKSSDKTHTCPPCPAPELLGGPSVFLFPPKPKDTLMISRTPEVTCVVVDVSHEDPEVKFNWYVDGVEVHNAKTKPREEQYNSTYRVVSVLTVLHQDWLNGKEYKCKVSNKALPAPIEKTISKAKGQPREPQVCTLPPSRDELTKNQVSLWCLVKGFYPSDIAVEWESNGQPENNYKTTPPVLDSDGSFFLYSKLTVDKSRWQQGNVFSCSVMHEALHNRYTQKSLSLSP
light: DIVMTQSPLSLPVTPGEPASISCRSSQSLVHSNRNTYLHWYQQKPGQAPRLLIYKVSNRFSGVPDRFSGSGSGTDFTLKISRVEAEDVGVYYCGQGTQVPYTFGQGTKLEIKRTVAAPSVFIFPPSDEQLKSGTASVVCLLNNFYPREAKVQWKVDNALQSGNSQESVTEQDSKDSTYSLSSTLTLSKADYEKHKVYACEVTHQGLSSPVTKSFNRGEC
B5: CE115HA000 A56G one-arm antibody (antibody, human IgG1, kappa, L234A L235A, N297A, name in Kabat numbering)
heavy: QVQLVESGGGVVQPGRSLRLSCAASGFTFSNAWMHWVRQAPGKGLEWVAQIKAKSNNYGTYYAESVKGRFTISRDDSKNSLYLQMNSLKTEDTAVYYCRYVHYGAYYGVDAWGQGTTVTVSSASTKGPSVFPLAPSSKSTSGGTAALGCLVKDYFPEPVTVSWNSGALTSGVHTFPAVLQSSGLYSLSSVVTVPSSSLGTQTYICNVNHKPSNTKVDKKVEPKSCDKTHTCPPCPAPEAAGGPSVFLFPPKPKDTLMISRTPEVTCVVVDVSHEDPEVKFNWYVDGVEVHNAKTKPREEQYASTYRVVSVLTVLHQDWLNGKEYKCKVSNKALPAPIEKTISKAKGQPREPQVYTLPPSRCELTKNQVSLSCAVKGFYPSDIAVEWESNGQPENNYKTTPPVLDSDGSFFLVSKLTVDKSRWQQGNVFSCSVMHEALHNHYTQKSLSLSPDYKDDDDK
chain: EPKSSDKTHTCPPCPAPELLGGPSVFLFPPKPKDTLMISRTPEVTCVVVDVSHEDPEVKFNWYVDGVEVHNAKTKPREEQYNSTYRVVSVLTVLHQDWLNGKEYKCKVSNKALPAPIEKTISKAKGQPREPQVCTLPPSRDELTKNQVSLWCLVKGFYPSDIAVEWESNGQPENNYKTTPPVLDSDGSFFLYSKLTVDKSRWQQGNVFSCSVMHEALHNRYTQKSLSLSP
light: DIVMTQSPLSLPVTPGEPASISCRSSQSLVHSNRNTYLHWYQQKPGQAPRLLIYKVSNRFSGVPDRFSGSGSGTDFTLKISRVEAEDVGVYYCGQGTQVPYTFGQGTKLEIKRTVAAPSVFIFPPSDEQLKSGTASVVCLLNNFYPREAKVQWKVDNALQSGNSQESVTEQDSKDSTYSLSSTLTLSKADYEKHKVYACEVTHQGLSSPVTKSFNRGEC
B6: CE115HA000 A56D one-arm antibody (antibody, human IgG1, kappa, L234A L235A, N297A, name in Kabat numbering)
heavy: QVQLVESGGGVVQPGRSLRLSCAASGFTFSNAWMHWVRQAPGKGLEWVAQIKAKSNNYDTYYAESVKGRFTISRDDSKNSLYLQMNSLKTEDTAVYYCRYVHYGAYYGVDAWGQGTTVTVSSASTKGPSVFPLAPSSKSTSGGTAALGCLVKDYFPEPVTVSWNSGALTSGVHTFPAVLQSSGLYSLSSVVTVPSSSLGTQTYICNVNHKPSNTKVDKKVEPKSCDKTHTCPPCPAPEAAGGPSVFLFPPKPKDTLMISRTPEVTCVVVDVSHEDPEVKFNWYVDGVEVHNAKTKPREEQYASTYRVVSVLTVLHQDWLNGKEYKCKVSNKALPAPIEKTISKAKGQPREPQVYTLPPSRCELTKNQVSLSCAVKGFYPSDIAVEWESNGQPENNYKTTPPVLDSDGSFFLVSKLTVDKSRWQQGNVFSCSVMHEALHNHYTQKSLSLSPDYKDDDDK
chain: EPKSSDKTHTCPPCPAPELLGGPSVFLFPPKPKDTLMISRTPEVTCVVVDVSHEDPEVKFNWYVDGVEVHNAKTKPREEQYNSTYRVVSVLTVLHQDWLNGKEYKCKVSNKALPAPIEKTISKAKGQPREPQVCTLPPSRDELTKNQVSLWCLVKGFYPSDIAVEWESNGQPENNYKTTPPVLDSDGSFFLYSKLTVDKSRWQQGNVFSCSVMHEALHNRYTQKSLSLSP
light: DIVMTQSPLSLPVTPGEPASISCRSSQSLVHSNRNTYLHWYQQKPGQAPRLLIYKVSNRFSGVPDRFSGSGSGTDFTLKISRVEAEDVGVYYCGQGTQVPYTFGQGTKLEIKRTVAAPSVFIFPPSDEQLKSGTASVVCLLNNFYPREAKVQWKVDNALQSGNSQESVTEQDSKDSTYSLSSTLTLSKADYEKHKVYACEVTHQGLSSPVTKSFNRGEC

The assay deals with T1, CD3 epsilon homodimer protein (UniProt P07766 23-126).
T1 construct: immobilized on Sensor chip CM4 by amine coupling; also called CD3 (CD3 epsilon)
T1 sequence (P07766 23-126): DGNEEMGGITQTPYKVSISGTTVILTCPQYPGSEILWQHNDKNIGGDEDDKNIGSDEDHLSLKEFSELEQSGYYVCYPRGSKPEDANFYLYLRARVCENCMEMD
The assay is described as follows: SPR (Biacore T200), CD3 epsilon homodimer on CM4 chip, one-arm antibody as analyte, 25 C.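 Further: homodimer attached to the sensor surface via amine coupling, HBS-EP+ used as running buffer during binding runs.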 A general note: Surface plasmon resonance follows binding to a sensor surface in real time, without labels.
As for B1, the “ratio of amounts bound (altered form / CE115HA000)” value was determined as 0.52.
In the case of B2, the “ratio of amounts bound (altered form / CE115HA000)” value is 1.35.
Regarding B3, the “ratio of amounts bound (altered form / CE115HA000)” value amounted to 0.31.
With B4 the figure was 0.8; with B5, 0.61; with B6, 0.51.
